In paper PMC3460914, “The Polyoma Virus Large T Binding Protein p150 Is a Transcriptional Repressor of c-MYC”:

How the values were obtained:
[1] = biological target: T1, GST-p150 (human, UniProt F5H433 1-1005); assay: EMSA; 100 ng protein, 200 ng poly(dA-dT); 10 mM HEPES pH 7.5, 25 nM KCl (so in the source), 2.5 mM MgCl (so in the source), 5 µl ZnCl, 3% glycerol, 2 µg BSA, 200 ng poly(dA-dT); temperature not stated; details: protein: recombinant; tags: GST; label: 32P (probe); blunt
T1 sequence: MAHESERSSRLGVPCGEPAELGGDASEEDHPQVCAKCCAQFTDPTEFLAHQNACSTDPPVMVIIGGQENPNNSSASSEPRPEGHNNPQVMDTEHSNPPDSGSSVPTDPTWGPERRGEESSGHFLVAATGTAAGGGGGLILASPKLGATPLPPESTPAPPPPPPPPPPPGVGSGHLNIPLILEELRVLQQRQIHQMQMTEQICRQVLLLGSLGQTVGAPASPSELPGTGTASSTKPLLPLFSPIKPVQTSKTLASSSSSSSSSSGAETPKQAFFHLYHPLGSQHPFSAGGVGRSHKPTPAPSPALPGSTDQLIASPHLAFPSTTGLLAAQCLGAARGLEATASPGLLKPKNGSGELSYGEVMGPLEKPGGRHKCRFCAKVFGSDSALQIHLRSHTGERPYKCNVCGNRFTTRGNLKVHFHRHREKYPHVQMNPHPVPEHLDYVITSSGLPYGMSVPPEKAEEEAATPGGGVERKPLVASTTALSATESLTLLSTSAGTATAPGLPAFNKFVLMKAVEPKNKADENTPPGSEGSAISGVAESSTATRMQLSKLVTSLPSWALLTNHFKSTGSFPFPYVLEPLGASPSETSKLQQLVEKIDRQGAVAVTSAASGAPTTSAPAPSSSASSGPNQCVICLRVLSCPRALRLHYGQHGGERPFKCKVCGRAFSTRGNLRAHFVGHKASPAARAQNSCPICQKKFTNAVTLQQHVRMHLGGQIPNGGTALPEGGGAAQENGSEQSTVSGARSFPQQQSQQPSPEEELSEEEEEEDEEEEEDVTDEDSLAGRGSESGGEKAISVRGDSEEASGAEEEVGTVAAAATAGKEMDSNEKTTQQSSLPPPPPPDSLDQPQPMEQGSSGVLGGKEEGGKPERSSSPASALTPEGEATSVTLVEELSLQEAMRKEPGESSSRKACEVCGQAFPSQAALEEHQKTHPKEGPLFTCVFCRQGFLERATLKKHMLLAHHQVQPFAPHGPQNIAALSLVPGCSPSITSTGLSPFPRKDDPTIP

[2] = biological target: T1, GST-p150; assay: competition; 50x unlabeled Oct1 vs labeled NHE III1; 10 mM HEPES pH 7.5, 25 nM KCl (so in the source), 2.5 mM MgCl (so in the source), 5 µl ZnCl, 3% glycerol, 2 µg BSA, 200 ng poly(dA-dT); temperature not stated; details: protein: recombinant; tags: GST; blunt

B1: NHE III1 of c-MYC promoter (dsDNA)
DNA 1: TGGGGAGGGTGGGGAGGGTGGGGAAGG
DNA 2: CCTTCCCCACCCTCCCCACCCTCCCCA
B1: binds [1].

B2: p150 consensus sequence (CS) (dsDNA)
DNA 1: GGATCACTGGGTGGGAATCACGCT
DNA 2: AGCGTGATTCCCACCCAGTGATCC
B2: binds [1].

B3: Oct1 binding site (dsDNA)
DNA 1: TGTCGAATGCAAATCACTAGAA
DNA 2: TTCTAGTGATTTGCATTCGACA
B3: no binding [2].
